Molecular target: human CD40 receptor (hCD40) (human, UniProt P25942 21-277)
Assay: BLI

human CD40 receptor (hCD40), sequence (P25942 21-277): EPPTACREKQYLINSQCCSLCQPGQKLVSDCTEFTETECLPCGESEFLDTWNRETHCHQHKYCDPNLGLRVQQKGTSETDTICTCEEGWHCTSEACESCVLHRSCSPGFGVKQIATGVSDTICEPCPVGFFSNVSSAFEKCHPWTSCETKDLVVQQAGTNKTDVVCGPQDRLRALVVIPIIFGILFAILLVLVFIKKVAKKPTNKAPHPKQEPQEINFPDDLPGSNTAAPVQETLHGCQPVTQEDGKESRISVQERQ

Kd: 288 nM
B1: DARPin WT_(CD40) binding the human CD40 receptor (designed binder)
chain: GSDLGKKLLQAARAGQLDEVRELLKAGADVNAKDTWGFTPLHIAAESGHLEIVEVLLKAGADVNAKDVQGRTPLHIAAHSGHLEIVEVLLKAGADVNAKDFRGWTPLHLAAWSGHLEIVEILLKAGADVNAQDKSGKTPADLAARAGHQDIAEVLQKAA
